The assay addresses rat prolactin receptor (PRLR) on Nb2 lymphoma cells (rat) (UniProt P05710). Description: FACS on rat lymphoma cell line Nb2, IgG1.

B1: HE06.642 (antibody, IgG1, V domains shown)
VH: EVQLVESGGGLVQPGGSLRLSCAVSGFTFSSYGMSWVRQAPGKGLEWVATVSSGGTYTYYPDSVKGRFTISRDNSKNTLYLQMNSLRAEDTAVYYCARHRGNYYATYYYAMDYWGQGTLVTVSS
VL: DIVLTQSPDSLAVSLGERATINCKASKSVSTSGYTYMHWYQQKPGQPPKLLIYLASNRESGVPDRFSGSGSGTDFTLTISPVQAEDVATYYCQHSGELPPSFGQGTKLEIKR
By EC50 is commonly meant the concentration giving half of the maximal effect. A high value points to weaker potency. B1 came in with an EC50 of 0.3 nM.

B2: 001-E06 (human IgG1) (antibody, V domains shown)
VH: QVELLESGGGLVQPGGSLRLSCAASGFTFSSYWMSWVRQAPGKGLEWVSSVSDTGTDTHYADSVKGRFTISRDNSKNTLYLQMNSLRAEDTAVYYCAKTPLAYSSGWYYFDYWGQGTLVTVSS
VL: DIVLTQPPSASGTPGQRVTISCSGSSSNIGSNTVNWYQQLPGTAPKLLIYRNYQRPSGVPDRFSGSKSGTSASLAISGLRSEDEADYYCQSYDSSLSGSVFGGGTKLTVLG
As for B2, the EC50 is 1.2 nM.

The values are drawn from patent publication US20130171147A1.
